tested on: Escherichia coli TOP10; assay: shrunken log2 fold change of peptide-encoding DNA abundance (4.5 h post-induction vs induction); higher = less antimicrobial activity (less host growth inhibition); conditions: time post-induction: 4.5 h; library: site-saturation at positions 5, 18, 19, 20
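Also: peptides expressed intracellularly from a pBAD plasmid library in pooled LB shake-flask culture, induced with 0.3% L-arabinose, DNA abundance read by NGS, three biological replicates, DESeq2 with apeglm shrinkage.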

| Sequence | shrunken log2 fold change |
| --- | --- |
| RRIRERPPRLPRPRPRPVMCPRP | 0.0654 |
| RRIRVRPPRLPRPRPRPHGFPRP | -0.017 |
| RRIRLRPPRLPRPRPRPPDKPRP | 0.0844 |
| RRIRKRPPRLPRPRPRPPILPRP | 0.0292 |
| RRIRQRPPRLPRPRPRPGWPPRP | 0.514 |
| RRIRHRPPRLPRPRPRPSILPRP | -0.464 |
| RRIRLRPPRLPRPRPRPAIYPRP | -1.28 |
| RRIRIRPPRLPRPRPRPYIFPRP | -0.425 |
| RRIRKRPPRLPRPRPRPYEGPRP | -0.0017 |
| RRIRSRPPRLPRPRPRPGILPRP | -0.0441 |
| RRIRSRPPRLPRPRPRPACMPRP | 0.159 |
| RRIRVRPPRLPRPRPRPQKIPRP | 0.0538 |
| RRIRIRPPRLPRPRPRPDICPRP | -0.0265 |
| RRIRERPPRLPRPRPRPLEVPRP | -0.166 |
| RRIRDRPPRLPRPRPRPRKIPRP | 0.0843 |
| RRIRNRPPRLPRPRPRPEKHPRP | -0.287 |
| RRIRNRPPRLPRPRPRPCGMPRP | -0.45 |
| RRIRVRPPRLPRPRPRPVCRPRP | -0.0404 |
| RRIRDRPPRLPRPRPRPGGCPRP | 0.687 |
| RRIRCRPPRLPRPRPRPRQCPRP | 0.0586 |
| RRIRHRPPRLPRPRPRPAEEPRP | 0.175 |
| RRIRCRPPRLPRPRPRPIGIPRP | -0.303 |
| RRIRPRPPRLPRPRPRPLFCPRP | -0.0561 |
| RRIRYRPPRLPRPRPRPLVPPRP | -0.539 |
| RRIRQRPPRLPRPRPRPLPCPRP | -0.00831 |

| Sequence | shrunken log2 fold change |
| --- | --- |
| RRIRCRPPRLPRPRPRPYQRPRP | 0.055 |
| RRIRYRPPRLPRPRPRPNPTPRP | 0.0161 |
| RRIRLRPPRLPRPRPRPYVTPRP | -0.169 |
| RRIRARPPRLPRPRPRPRQSPRP | 0.233 |
| RRIRNRPPRLPRPRPRPIDRPRP | 0.00281 |
| RRIRGRPPRLPRPRPRPHCMPRP | -0.207 |
| RRIRPRPPRLPRPRPRPEQQPRP | -0.0146 |
| RRIRVRPPRLPRPRPRPIRYPRP | 0.146 |
| RRIRDRPPRLPRPRPRPQNGPRP | -0.0018 |
| RRIRMRPPRLPRPRPRPQYVPRP | -0.0961 |
| RRIRYRPPRLPRPRPRPEHHPRP | -0.646 |
| RRIRQRPPRLPRPRPRPGHRPRP | 0.0349 |
| RRIRNRPPRLPRPRPRPQYCPRP | -0.186 |
| RRIRYRPPRLPRPRPRPMFCPRP | -0.297 |
| RRIRSRPPRLPRPRPRPAPKPRP | 0.569 |
| RRIRCRPPRLPRPRPRPHFKPRP | -0.368 |
| RRIRSRPPRLPRPRPRPPREPRP | 0.622 |
| RRIRARPPRLPRPRPRPIQKPRP | 0.00369 |
| RRIRLRPPRLPRPRPRPMAFPRP | -0.127 |
| RRIRYRPPRLPRPRPRPETWPRP | 0.093 |
| RRIRSRPPRLPRPRPRPGTQPRP | 0.00256 |
| RRIRWRPPRLPRPRPRPTTFPRP | -0.09 |
| RRIRFRPPRLPRPRPRPIHMPRP | -0.491 |
| RRIRQRPPRLPRPRPRPYHDPRP | 0.015 |
| RRIRERPPRLPRPRPRPTCGPRP | 0.497 |

| Sequence | shrunken log2 fold change |
| --- | --- |
| RRIRERPPRLPRPRPRPAKAPRP | 0.0877 |
| RRIRGRPPRLPRPRPRPKELPRP | 0.247 |
| RRIRNRPPRLPRPRPRPAQNPRP | 0.861 |
| RRIRCRPPRLPRPRPRPETTPRP | 0.394 |
| RRIRKRPPRLPRPRPRPWVLPRP | 0.0941 |
| RRIRKRPPRLPRPRPRPDHYPRP | -0.0322 |
| RRIRMRPPRLPRPRPRPRVTPRP | 0.467 |
| RRIRFRPPRLPRPRPRPMLIPRP | -0.217 |
| RRIRIRPPRLPRPRPRPHMCPRP | -1.25 |
| RRIRVRPPRLPRPRPRPCFLPRP | -0.493 |
| RRIRMRPPRLPRPRPRPGVEPRP | 1.39 |
| RRIRLRPPRLPRPRPRPCQTPRP | -0.0348 |
| RRIRFRPPRLPRPRPRPYLWPRP | -0.309 |
| RRIRHRPPRLPRPRPRPDVAPRP | -0.00146 |
| RRIRVRPPRLPRPRPRPQWPPRP | 0.336 |
| RRIRKRPPRLPRPRPRPYSLPRP | -0.0434 |
| RRIRKRPPRLPRPRPRPGWQPRP | 0.347 |
| RRIRCRPPRLPRPRPRPELQPRP | 0.251 |
| RRIRNRPPRLPRPRPRPWGVPRP | 0.112 |
| RRIRHRPPRLPRPRPRPEHNPRP | -0.0734 |
| RRIRMRPPRLPRPRPRPQRPPRP | 0.389 |
| RRIRSRPPRLPRPRPRPGMHPRP | -0.0823 |
| RRIRWRPPRLPRPRPRPFGKPRP | -0.578 |
| RRIRSRPPRLPRPRPRPKMIPRP | -0.292 |
| RRIRGRPPRLPRPRPRPHPGPRP | 0.421 |
